# Results reported in paper doi:10.1101/2020.12.03.409995 (2020).
# B1: wild-type sTREM2 (TREM2 ectodomain, residues 19-143, His-tagged) (domain or fragment)
# chain: HNTTVFQGVAGQSLQVSCPYDSMKHWGRRKAWCRQLGEKGPCQRVVSTHNLWLLSFLRRWNGSTAITDDTLGGTLTITLRNLQPHDAGLYQCQSLHGSEADTLRKVLVEVLADPLDHRDAGDLWF
# Assays:
# Biotin-Aβ42 oligomers [1] = target: T1, Biotin-Aβ42 oligomers (human, UniProt P05067 672-713, biotin (position not given)); assay: BLI; koff1 (first site)
# Biotin-Aβ42 oligomers [2] = target: T1, Biotin-Aβ42 oligomers; assay: BLI; koff2 (second site)
binder,measurement,setting,value
B1,koff,Biotin-Aβ42 oligomers [1],0.435 s⁻¹
same,koff,Biotin-Aβ42 oligomers [2],0.00772 s⁻¹
